Columns and labels:
[1] = substrate: N[C@@H](CS)C(=O)O; assay: Michaelis–Menten kinetics, Ala-NDA assay; type: biochemical, Bacillus subtilis; conditions: pyridoxal-5′-phosphate (PLP)
purified protein = substrate: N[C@@H](CS)C(=O)O; assay: purified protein; type: biochemical, Staphylococcus aureus; conditions: pyridoxal-5′-phosphate (PLP) Cys displaces Lys250 and binds PLP to form Cys-aldimine; catalytic Cys389

Protein	Km [1] [µM]	kcat [1] [s⁻¹]	kcat/Km [1] [M⁻¹ s⁻¹]	Km (purified protein) [µM]	kcat (purified protein) [s⁻¹]	kcat/Km (purified protein) [M⁻¹ s⁻¹]
cysteine desulfurase SufS (BsSufS) (Bacillus subtilis subsp. subtilis str. 168) (protein) MNITDIREQFPILHQQVNGHDLVYLDSAATSQKPRAVIETLDKYYNQYNSNVHRGVHTLGTRATDGYEGAREKVRKFINAKSMAEIIFTKGTTTSLNMVALSYARANLKPGDEVVITYMEHHANIIPWQQAVKATGATLKYIPLQEDGTISLEDVRETVTSNTKIVAVSHVSNVLGTVNPIKEMAKIAHDNGAVIVVDGAQSTPHMKIDVQDLDCDFFALSSHKMCGPTGVGVLYGKKALLENMEPAEFGGEMIDFVGLYESTWKELPWKFEAGTPIIAGAIGLGAAIDFLEEIGLDEISRHEHKLAAYALERFRQLDGVTVYGPEERAGLVTFNLDDVHPHDVATVLDAEGIAVRAGHHCAQPLMKWLDVTATARASFYLYNTEEEIDKLVEALQKTKEYFTNVF	440 ± 190	0.0817 ± 0.0117	185 ± 107	–	–	–
cysteine desulfurase SufS (SaSufS) (Staphylococcus aureus subsp. aureus USA300) (protein) MAEHSFDVNEVIKDFPILDQKVNGKRLAYLDSTATSQTPVQVLNVLEDYYKRYNSNVHRGVHTLGSLATDGYENARETVRRFINAKYFEEIIFTRGTTASINLVAHSYGDANVEEGDEIVVTEMEHHANIVPWQQLAKRKNATLKFIPMTADGELNIEDIKQTINDKTKIVAIAHISNVLGTINDVKTIAEIAHQHGAIISVDGAQAAPHMKLDMQEMNADFYSFSGHKMLGPTGIGVLFGKRELLQKMEPIEFGGDMIDFVSKYDATWADLPTKFEAGTPLIAQAIGLAEAIRYLERIGFDAIHKYEQELTIYAYEQMSAIEGIEIYGPPKDRRAGVITFNLQDVHPHDVATAVDTEGVAVRAGHHCAQPLMKWLNVSSTARASFYIYNTKEDVDQLINALKQTKEFFSYEF	–	–	–	600 ± 170	0.0683 ± 0.00833	113 ± 45

Source: article PMC11851464, “Development of a Spectrophotometric Assay for the Cysteine Desulfurase from Staphylococcus aureus” (Antibiotics, 2025)
